Source: patent US10005846 (LIFEARC, dated 2018)
Where a chain is given by its changes, count along the chain named.

Key:
[1] = molecular target: T1, human transglutaminase type 2 (TG2) (human, UniProt P21980 1-687); experiment: cell-based or functional assay
T1 sequence: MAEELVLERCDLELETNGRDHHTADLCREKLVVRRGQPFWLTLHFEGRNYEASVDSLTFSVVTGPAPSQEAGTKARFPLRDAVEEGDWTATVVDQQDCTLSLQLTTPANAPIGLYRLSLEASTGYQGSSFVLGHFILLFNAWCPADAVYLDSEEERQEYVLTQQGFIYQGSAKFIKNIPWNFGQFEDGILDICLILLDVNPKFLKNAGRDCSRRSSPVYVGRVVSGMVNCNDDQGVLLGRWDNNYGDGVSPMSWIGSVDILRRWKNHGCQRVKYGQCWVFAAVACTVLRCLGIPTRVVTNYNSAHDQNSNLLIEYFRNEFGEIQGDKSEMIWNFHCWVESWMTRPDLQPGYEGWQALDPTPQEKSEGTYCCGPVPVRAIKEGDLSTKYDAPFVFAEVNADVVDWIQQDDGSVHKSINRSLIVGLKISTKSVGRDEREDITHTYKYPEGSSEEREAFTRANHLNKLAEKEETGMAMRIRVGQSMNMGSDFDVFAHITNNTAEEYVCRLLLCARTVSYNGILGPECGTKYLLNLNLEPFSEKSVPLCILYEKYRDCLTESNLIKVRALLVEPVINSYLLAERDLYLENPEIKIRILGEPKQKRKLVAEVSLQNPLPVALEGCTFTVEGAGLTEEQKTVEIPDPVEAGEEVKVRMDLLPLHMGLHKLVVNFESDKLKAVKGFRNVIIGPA

[2] = molecular target: T2, cynomolgus monkey TG2 (cynomolgus monkey, UniProt A0A2K5VXI8 1-687); experiment: SPR (Biacore T200), antibody captured on anti-human IgG1 Fc chip, TG2 injected; +Ca2+
T2 construct: Bought recombinant protein; also called cynomogulus monkey TG2; cyano TG2
T2 sequence: T1 sequence with E4D, Q157R, N177S, H413S, I421T, Y528H, V542I
Method: Recombinant cynomolgus monkey TG2 was obtained from Trenzyme. Surface plasmon resonance (SPR) was measured on a Biacore T200 instrument (GE Healthcare). CM5 chips (GE Healthcare cat. no.: BR-1006-68) were coated with monoclonal mouse anti-human IgG1 (Fc) (MAH) antibody (GE Healthcare cat. no.: BR-1008-39) by amine-coupling as described in the manufacturers instructions. HBS-EP+ buffer (0.01 M HEPES, 0.15 M NaCl, 3 mM EDTA, 0.05% v/v Surfactant P20) and HBS-P+ buffer (0.01 M HEPES, 0.15 M NaCl, 0.05% Surfactant P20) were purchased from GE Healthcare as 10× stocks (cat. nos.: BR-1006-69 and BR-1006-71). Calcium Chloride solution was obtained from Sigma Aldrich (cat. no.:21115).
The method employed to determine the affinity of the anti-TG2 antibodies involved the capture of the chimeric or humanised antibodies on a MAH coated CM5 chip, followed by the injection of a series of TG2 samples in running buffer. The running buffer was 1×HBS-P+ containing 1 mM CaCl_2, or 1×HBS-EP+ for calcium-free experiments. Antibody capture was carried out for a contact time of 120 seconds at a flow rate of 10 μl/min resulting in the capture of approximately 40-80 RU. TG2 was injected over the immobilised antibody at concentrations ranging from 25 nM to 400 nM with a contact time up to 600 seconds at a flow rate of 30 μl/min. Dissociation of TG2 was typically measured for up to 5400 seconds (1.5 hours). Regeneration of the chip was then performed using 3 M MgCl_2, for a contact time of 60 seconds at a flow rate of […], followed by a 300 s stabilisation period before the next sample. For each of human and cynomolgus monkey TG2, at least 5 injections at a variety of concentrations were performed in at least two separate experiments.
Kinetic data were exported from the Biacore T200 Evaluation Software and analysed using GraphPad Prism, where the association phases and dissociation phases were analysed separately using a one phase association model and one-phase exponential decay model respectively. Association rates ($kon$) were calculated for each curve individually, and dissociation rates ($koff$) values from the long dissociation phase data collected. Where $koff$ values were calculated to be $<1\times10^-5$ s^-1, values were set at 1×10^-5 for analysis, as rates slower than this could not be estimated accurately.

[3] = molecular target: T1, human transglutaminase type 2 (TG2); experiment: cell-based or functional assay; remark: listed apart in the source

B1: JE12 murine monoclonal antibody (antibody, V domains shown)
VH: EVQLQQSGPELVKPGASVKMSCKASGYRFTSYVMHWVKQKSGQGLEWIGYINPYNDGAKYNEKFKGKATLTSDKSSSTAYMELSSLTSEDSAVYYCARLSSDYWGQGTTLTVSS
VL: DVLMTQNPLSLPVSLGDQASISCRSSQSIEHINGNTYLEWYLQKPGQSPKFLIYKVSNRFSGVPDRFSGSGSGTDFTLRISRVEAEDLGIYYCFQGSHVPFTFGGGTKLEIK
notes: Mouse hybridoma IgG; heavy chain amplified with primer MHCG1, kappa light chain
IC50, 3H-putrescine incorporation assay [1]: 0.000123 mg/ml of IgG (to inhibit 1 ng of TG2)

B2: cDH001 chimeric antibody (murine DH2 variable regions) (antibody, human IgG1, V domains shown)
VH: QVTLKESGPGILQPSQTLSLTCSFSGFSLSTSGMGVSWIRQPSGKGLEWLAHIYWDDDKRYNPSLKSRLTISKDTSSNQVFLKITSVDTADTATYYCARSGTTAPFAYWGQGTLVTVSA
VL: QIVLTQSPAIMSASPGEKVTMTCSASSSVSYMYWYQQKPGSSPRLLIYDTSNLASGVPVRFSGSGSGTSYSLTISRMEAEDAATFYCQQWSSSPLTFGAGTKLELK
Kd [2]: < 0.7 nM
koff [2]: < 1e-05 s⁻¹
kon [2]: 15000 M⁻¹ s⁻¹

B3: cDD9001 chimeric antibody (murine DD9 variable regions) (antibody, human IgG1, V domains shown)
VH: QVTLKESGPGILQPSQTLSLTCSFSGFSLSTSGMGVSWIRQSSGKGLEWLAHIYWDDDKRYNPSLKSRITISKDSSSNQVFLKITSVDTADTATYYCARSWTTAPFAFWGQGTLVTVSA
VL: B2 VL with S30D, E78G, F85Y, S91N
Kd [2]: 0.52 nM
koff [2]: 1.6e-05 s⁻¹
kon [2]: 31000 M⁻¹ s⁻¹

B4: AB1 murine monoclonal antibody (antibody, V domains shown)
VH: EVQLVESGGGLVKPGGSLKLSCAASGFTLSSSAMSWVRQTPDRRLEWVATISVGGGKTYYPDSVKGRFTISRDNAKNTLYLQMNSLRSEDTAMYYCAKLISLYWGQGTTLTVSS
VL: DIKMTQSPSSMYASLGERVTITCKASQDINSYLTWFQQKPGKSPKTLIYRTNRLFDGVPSRFSGSGSGQDFFLTISSLEYEDMGIYYCLQYDDFPYTFGGGTKLEIK
notes: Mouse hybridoma IgG; heavy chain amplified with constant region primer MHCG1, kappa light chain; also called mAB003
IC50, 3H-putrescine incorporation assay [1]: 1.1e-05 mg/ml of IgG (to inhibit 1 ng of TG2)
half-maximal concentration of enzymatic inhibition, headed EC50 nM on the sheet, IC50 in the legend [panel A] [3]: 9.5 nM

B5: DC1 murine monoclonal antibody (antibody, V domains shown)
VH: EVQLVESGGGLVKPGGSLKLSCAASGFTLSTHAMSWVRQTPEKRLEWVATISSGGRSTYYPDSVKGRFTISRDNVKNTLYLQLSSLRSEDTAVYFCARLISTYWGQGTTLTVSS
VL: B4 VL with K3T, M11I, T46I, R50L, T51V, F55V, F71Y, F72A
notes: Mouse hybridoma IgG; heavy chain amplified with primer MHCG1, kappa light chain; also called mDC001
IC50, 3H-putrescine incorporation assay [1]: 1.1e-05 mg/ml IgG per ng of recombinant TG2

B6: cBB001 chimeric antibody (murine BB7 variable regions) (antibody, human IgG1, V domains shown)
VH: AVQLVESGGGLVKPGGSLKLSCAASGIIFSSSAMSWVRQTPEKRLEWVATISSGGRSTYYPDSVKGRFTVSRDSAKNTLYLQMDSLRSEDTAIYYCAKLISPYWGQGTTLTVSS
VL: B4 VL with D1A, T20I, R50L, F55M, D70E, F72L, S77G, Y80H, D92V
notes: also called chimeric BB7
Kd [2]: < 0.03 nM
koff [2]: < 1e-05 s⁻¹
kon [2]: 290000 M⁻¹ s⁻¹

B7: BB7 murine monoclonal antibody (antibody, V domains shown)
VH: B6 VH
VL: B4 VL with D1A, T20I, R50L, F55M, D70E, F72L, S77G, Y80H, D92V
notes: Mouse hybridoma IgG; heavy chain amplified with primer MHCG1, kappa light chain; also called mBB001
half-maximal concentration of enzymatic inhibition, headed EC50 nM on the sheet, IC50 in the legend [panel B] [3]: 0.752 nM
